Test results published in paper PMC5738438, “Dynamic intramolecular regulation of the histone chaperone nucleoplasmin controls histone binding and release” (Nature Communications, 2017).

Legend:
[1] = biological target: the molecule itself; assay: SEC-SAXS; complex of core+A2 and H2A/H2B purified by SEC, 4.83 mg/mL on Superdex 200 PC3.2/300, 5 mM DTT; Porod volume
H2A/H2B dimer = H2A/H2B dimer (Xenopus, UniProt P06897 2-123; P02281 1-126); assay: other fluorescence titration; equilibrium tryptophan (W125) fluorescence, 340/360 ratio; tail or peptide 0.5 µM, histones titrated; 20 mM Tris pH 7.6, 150 mM NaCl, 1 mM EDTA, 1 mM DTT, 0.01% NP-40; single-site model; conditions: both partners purified

Row | Binder | stoichiometry N [1] | Kd (H2A/H2B dimer) [nM]
1 | Npm core+A2 truncation (1–145) (domain or fragment) ASTASNTSKVEKPVSLIWGCELNEQNKTFAFKIEDEEEKCEHQLALRTVCLGDKAKDEFHIVEIVTQEEGKEKPVPIASLKPSILPMATMVGIELTPPVTFRLKAGSGPVYISGQHVAMEEDYSWAEEEDEGEEEEEEEEDPESP | 5 | 
2 | MEEDYSWAEEEDEGEEEEEEEEDPESP [A2 peptide (residues 119–145)] |  | < 50
